Targets include FcγRIIIa (F158) (human) (UniProt P08637); FcγRIIIa (V158) (human); FcγRI (human) (UniProt P12314); FcγRIIb (human) (UniProt P31994); FcγRIIa (H131) (human) (UniProt P12318); FcγRIIa (R131) (human).
Common to all, as to assay: SPR
For orientation: SPR reads the build-up and loss of mass on a sensor chip optically.

Assay [1] concerns the target APG777 (human (humanized IgG1)).

Chain of UniProt P12314 (P12314 16-292): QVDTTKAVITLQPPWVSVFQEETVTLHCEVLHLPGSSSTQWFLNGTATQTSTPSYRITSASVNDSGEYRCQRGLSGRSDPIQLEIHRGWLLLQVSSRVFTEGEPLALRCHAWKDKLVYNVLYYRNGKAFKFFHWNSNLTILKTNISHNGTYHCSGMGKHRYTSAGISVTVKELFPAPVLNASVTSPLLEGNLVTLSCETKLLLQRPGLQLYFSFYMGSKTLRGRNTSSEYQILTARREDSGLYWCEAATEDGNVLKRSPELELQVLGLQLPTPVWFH
Chain of UniProt P31994 (P31994 43-217): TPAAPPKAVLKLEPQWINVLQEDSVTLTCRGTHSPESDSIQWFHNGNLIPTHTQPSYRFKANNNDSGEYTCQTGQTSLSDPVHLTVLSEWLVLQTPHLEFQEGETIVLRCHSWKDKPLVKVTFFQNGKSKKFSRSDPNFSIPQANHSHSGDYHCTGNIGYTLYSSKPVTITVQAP
Chain of FcγRIIIa (V158) (human) (P08637 17-208): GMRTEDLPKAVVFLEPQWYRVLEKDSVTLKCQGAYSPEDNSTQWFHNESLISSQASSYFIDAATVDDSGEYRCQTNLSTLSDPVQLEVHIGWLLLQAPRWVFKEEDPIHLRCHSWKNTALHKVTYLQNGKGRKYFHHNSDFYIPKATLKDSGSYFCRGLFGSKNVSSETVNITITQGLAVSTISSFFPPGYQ
Chain of FcγRIIa (R131) (human) (P12318 34-217): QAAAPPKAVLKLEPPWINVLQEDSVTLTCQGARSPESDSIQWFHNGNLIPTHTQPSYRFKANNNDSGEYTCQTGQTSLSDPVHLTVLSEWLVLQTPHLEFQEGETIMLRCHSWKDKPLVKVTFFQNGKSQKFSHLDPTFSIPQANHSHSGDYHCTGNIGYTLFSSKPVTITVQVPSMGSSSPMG

As a reminder, the Kd is the concentration at which binding is half-saturated. A higher Kd goes with weaker binding. With “human neonatal Fc receptor (huFcRn) (from UniProt P55899 24-365)”, the Kd in assay [1] worked out at 0.0944 µM.

Turning to APG777 (antibody), the Kd with FcγRIIIa (F158) (human) turned out to be 56.2 µM; with FcγRIIIa (V158) (human), 12.1 µM; in the assay with FcγRI (human), 7.88 µM.

Take rituximab (antibody): the Kd came to 15.3 µM with FcγRIIb (human); 2.93 µM with FcγRIIa (H131) (human); 0.957 µM in the assay with FcγRIIIa (F158) (human); 0.193 µM with FcγRIIIa (V158) (human); 5.95 µM with FcγRIIa (R131) (human).

For the origin of these results see article PMC12419008.
